Measured values: US20240307536A1

Columns and labels:
Experiment in all cases: cell-based or functional assay
[1] = molecular target: CXCR3 on SAK cells (human) (UniProt P49682)
[2] = molecular target: MHC class I on MV411 cells (human)
[3] = molecular target: CXCR2 on SAK cells (human) (UniProt P25025)
UniProt P25025, sequence (P25025 whole entry): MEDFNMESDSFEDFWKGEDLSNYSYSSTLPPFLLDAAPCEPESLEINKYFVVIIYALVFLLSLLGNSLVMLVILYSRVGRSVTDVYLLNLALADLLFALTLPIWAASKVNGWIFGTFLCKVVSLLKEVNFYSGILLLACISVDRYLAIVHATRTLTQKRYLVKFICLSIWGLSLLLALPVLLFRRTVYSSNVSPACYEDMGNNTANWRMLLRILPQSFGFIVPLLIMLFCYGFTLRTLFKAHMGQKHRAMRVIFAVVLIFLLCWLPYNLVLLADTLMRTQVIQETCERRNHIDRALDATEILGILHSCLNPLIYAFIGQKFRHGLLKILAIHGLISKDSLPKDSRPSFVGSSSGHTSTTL

UniProt P49682, sequence (P49682 whole entry): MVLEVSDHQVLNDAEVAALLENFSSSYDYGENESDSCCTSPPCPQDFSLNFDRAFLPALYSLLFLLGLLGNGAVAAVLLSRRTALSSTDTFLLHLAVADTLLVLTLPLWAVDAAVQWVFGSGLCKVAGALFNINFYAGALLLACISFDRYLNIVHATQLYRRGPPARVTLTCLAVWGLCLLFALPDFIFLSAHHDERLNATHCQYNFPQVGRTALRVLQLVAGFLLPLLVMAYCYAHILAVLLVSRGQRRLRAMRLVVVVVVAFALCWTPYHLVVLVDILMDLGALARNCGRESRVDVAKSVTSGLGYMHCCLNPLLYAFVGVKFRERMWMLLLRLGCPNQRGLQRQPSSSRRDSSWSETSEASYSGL

Substance “IP-10 (PeproTech EC) (from UniProt P02778 22-98) (ligand)” has a Transwell migration of SAK cells within four hours, percentage of the input cells (500 ng/ml IP-10) [1] of 30%.

With “anti-MHC I antibody (W6/32 clone, Biolegend)” the cytotoxic activity of SAK cells against MV411 cells kept in the presence of 1 ug/ml anti-MHC I antibody, CFSE-based cytotoxicity assay [2] was greater than 40%.

“rhIL-8 (PeproTech EC) (from UniProt P10145 28-99) (ligand)” showed a Transwell migration of SAK cells within four hours, percentage of the input cells (100 ng/mL IL-8) [3] of 3%.
